In paper PMC12102760 (2025):

B1: Fab F1 (Fab, V domains shown)
VH: EVQLVESGGGLVQPGGSLRLSCAASGFDSGAYLRHWVRQAPGKGLEWVASIYPSYGYTSYADSVKGRFTISADTSKNTAYLQMNSLRAEDTAVYYCARSAASYYGYWHWYHFSPGMDYWGQGTLVTVSS
VL: DIQMTQSPSSLSASVGDRVTITCRASQSVSSAVAWYQQKPGKAPKLLIYSASDLYSGVPSRFSGSRSGTDFTLTISSLQPEDFATYYCQQYVSGGWLITFGQGTKVEIK
B2: Fab C1 (Fab, V domains shown)
VH: EVQLVESGGGLVQPGGSLRLSCAASGFTIYYSSMHWVRQAPGKGLEWVASISSYYGYTYYADSVKGRFTISADTSKNTAYLQMNSLRAEDTAVYYCARYYAMDYWGQGTLVTVSS
VL: DIQMTQSPSSLSASVGDRVTITCRASQSVSSAVAWYQQKPGKAPKLLIYSASSLYSGVPSRFSGSRSGTDFTLTISSLQPEDFATYYCQQYYGYGGYPITFGQGTKVEIK
B3: Fab L1 (Fab, V domains shown)
VH: EVQLVESGGGLVQPGGSLRLSCAASGFTISSSYIHWVRQAPGKGLEWVASISSYYGSTSYADSVKGRFTISADTSKNTAYLQMNSLRAEDTAVYYCARSHYSVWWGWHSVSYYAAFDYWGQGTLVTVSS
VL: DIQMTQSPSSLSASVGDRVTITCRASQSVSSAVAWYQQKPGKAPKLLIYSASSLYSGVPSRFSGSRSGTDFTLTISSLQPEDFATYYCQQGSAPFTFGQGTKVEIK

Legend:
[1] = molecular target: T1, EphA2 extracellular domain (ECD) (human, UniProt P29317 24-537); assay: SPR
T1 sequence (P29317 24-537): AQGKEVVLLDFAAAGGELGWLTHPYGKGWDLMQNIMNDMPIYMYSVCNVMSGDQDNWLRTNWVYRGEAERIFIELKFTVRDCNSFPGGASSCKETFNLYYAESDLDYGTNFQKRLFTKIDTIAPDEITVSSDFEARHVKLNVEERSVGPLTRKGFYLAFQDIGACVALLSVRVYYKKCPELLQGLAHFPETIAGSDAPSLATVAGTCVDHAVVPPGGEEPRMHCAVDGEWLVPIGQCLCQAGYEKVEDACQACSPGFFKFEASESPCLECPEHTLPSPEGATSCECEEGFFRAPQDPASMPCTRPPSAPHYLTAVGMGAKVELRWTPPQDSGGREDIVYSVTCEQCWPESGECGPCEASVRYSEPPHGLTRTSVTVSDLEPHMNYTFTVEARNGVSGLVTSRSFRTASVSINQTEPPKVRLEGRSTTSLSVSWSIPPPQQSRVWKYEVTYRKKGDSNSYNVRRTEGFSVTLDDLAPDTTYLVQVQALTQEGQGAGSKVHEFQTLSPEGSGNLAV

[2] = molecular target: T1, EphA2 extracellular domain (ECD); assay: SPR; remark: listed apart in the source

Binder | Kd [1] [nM] | koff [2] [s⁻¹]
B1 | 0.26 | 7.8e-05
B2 | 0.21 | 0.00019
B3 | 0.44 | 7.2e-05
